Assay results from patent US20160002318A1.

Tests used:
Assay in all cases: cell-based or functional assay
[1] = target: HA of influenza B virus B/Florida/04/2006 (live virus) (influenza B virus B/Florida/04/2006)
[2] = target: HA of influenza B virus B/Harbin/7/1994 (live virus) (influenza B virus B/Harbin/7/1994)
[3] = target: HA of influenza B virus B/Malaysia/2506/2004 (live virus) (influenza B virus B/Malaysia/2506/2004)
[4] = target: HA of influenza B virus B/Brisbane/60/2008 (live virus) (influenza B virus B/Brisbane/60/2008)

Binder | VNA titers [1] [µg/mL] | VNA titers [2] [µg/mL] | VNA titers in µg/ml (*assay was done with 25 TCIDs) [3] [µg/mL] | HI titers [4] [µg/mL] | VNA titers [4] [µg/mL] | HI titers [1] [µg/mL] | HI titers [2] [µg/mL] | HI titers [3] [µg/mL]
CR8031 (antibody, V domains shown) VH: EVQLVESGGGLVQPGRSLRLSCAASGFTFDEYIMHWVRQAPGKGPEWVAGINWKGNFMGYADSVQGRFTISRDNAKNSLYLQMNSLRADDTALYYCAKDRLESSAMDILEGGTFDIWGQGTMVT VL: QSALTQPASVSGSPGQSITISCTGTSSDVGGYNYVSWYQQHPGKAPKLMIYDVSSRPSGVSNRFSGSKSGDTASLSISGLQAEDEADYYCSSYTSSSTHVFGTGTKVTVL | 0.88 | 1.24 | > 50 | – | – | – | – | –
CR8033 (antibody, V domains shown) VH: EVQLVETGGGLVQPGRSLRLSCAASGFSFDEYTMHWVRQAPGKGLEWVAGINWKGNFMGYADSVQGRFTISRDNGKNSLYLQMNSLRAEDTALYYCAKDRLESSAMDILEGGTFDIWGQGTMVT VL: EIVLTQSPGTLSLSPGERATLSCRASQSVSSSYLAWYQQKPGQAPRLLIYGASTRATGIPARFSGSGSGTDFTLTISRLEPEDLAVYYCQQYGSSPWTFGQGTKVEIK | 0.02 | 0.03 | 0.88 | > 50 | 5.95 | 0.22 | 0.39 | > 50
CR8034 (antibody, V domains shown) VH: EVQLVETGGGLVQPGRSLRLSCAASGFTFDEYIMHWVRQAPGKGPEWVAGINWKGNFMGYADSVQGRFTISRDNAKNSLYLQMNSLRADDTALYYCAKDRLESSAMDILEGGTFDIWGQGTMVTVSS VL: DIQMTQSPSSLSASVGDRVTITCRASQGIRNDLGWYQQKPGKAPKRLIYAASSLQSGVPSRFSGSGSGTDFTLTISSLQPEDFATYYCQQANTYPLTFGGGTKLEIK | 0.12 | 0.29 | 2.31 | – | – | – | – | –
CR8035 (antibody, V domains shown) VH: EVQLVESGGGLVQPGRSLRLSCAASGFTFDEYIMHWVRQAPGKGPEWVAGINWKGNFMGYADSVQGRFTISRDNAKNSLYLQMNSLRADDTALYYCAKDRLESSAMDILEGGTFDIWGQGTMVTVSS VL: SSELTQDPAVSVALGQTVRITCQGDSLRSYYASWYQQKPGQAPVLVIYGKNNRPSGIPDRFSGSSSRNTASLTITGAQAEDEADYYCDSRDSSGTHYVFGGGTKVTVL | 0.66 | 0.66 | 4.46 | – | – | – | – | –
CR8059 (antibody, V domains shown) VH: EVQLVQSGAEVKKPGASVRVSCRASGYIFTESGITWVRQAPGQGLEWMGWISGYSGDTKYAQKLQGRVTMTKDTSTTTAYMELRSLRYDDTAVYYCARDVQYSGSYLGAYYFDYWSPGTLVTVSS VL: SYVLTQPPSASGTPGQRVTISCSGSSSNIGTNYVYWYQQFPGTAPKLLIYRSYQRPSGVPDRFSGSKSGSSASLAISGLQSEDEADYYCATWDDSLNGWVFGGGTKLTVL | 3.23 | 2.39 | 17.7 | > 50 | 4.55 | > 50 | > 50 | > 50
CR8071 (antibody, V domains shown) VH: QVQLVQSGAEVKKPGASVRVSCRASGYIFTESGITWVRQAPGQGLEWMGWISGYSGDTKYAQKLQGRVTMTKDTSTTTAYMELRSLRYDDTAVYYCARDVQYSGSYLGAYYFDYWSPGTLVTVSS VL: QSVLTQPPSASGTPGQRVTISCSGSSSNIGTNYVYWYQQFPGTAPKLLIYRSYQRPSGVPDRFSGSKSGSSASLAISGLQSEDEADYYCATWDDSLDGWVFGGGTKLTVLR | 2.12 | 2.34 | 14.9 | > 50 | 3.72 | > 50 | > 50 | > 50
CR10023 (antibody, V domains shown) VH: EVQLVETGGGLVQPGRSLRLSCAASGFTFDDYAMHWVRQAPGKGLEWVSGINWVSTTMGYADSVKGRFTISRDNAKNSLYLQMNSLRAEDTALYYCAKDRLESAAIDILEGGTFDIRGQGTMVTVSS VL: QSALTQPPSASGSPGQSVTISCTGTSSDVGGYNYVSWYQQHPGKAPKLMIYDVSKRPSGVPDRFSGSKSGNTASLTISGLQAEDEAEYYCSSYASGSTYVFGTGTKVTVL | < 0.55 | 0.26 | 12.5 | > 50 | 7.07 | 1.56 | 1.1 | > 50
CR8032 (antibody, V domains shown) VH: EVQLVESGGGLVQPGRSLRLSCAASGFSFDEYIMHWVRQAPGKGLEWVAGINWKGNFMGYADSVQGRFTISRDNGKNSLYLQMNSLRAEDTALYYCAKDRLESSAMDILEGGTFDIWGQGTMVTVSS VL: QSALTQPASVSGSPGQSITISCTGTRRDVGDYKYVSWYQQHPGKAPKLMIYDVSNRPSGVSNRFSGSKSGTTASLTISGLQAEDEADYYCSSYTTSNTRVFGGGTKLTVL | 0.69 | 0.69 | 3.88 | – | – | – | – | –
CR11035 (antibody, V domains shown) VH: QVQLVQSGAEVKKPGSSVKVSCKTSGYAFNGYGISWVRQAPGQGLEWVAWINTYKVNTHYAQNLRGRVTVSIDTSTTTAYMELRSLRSDDTAVYYCARDWGGPFGNAFDFWGQGTMVTVSS VL: DIQMTQSPSSLAASIGDSVTITCRASQSVGSYLNWYQQKPGKAPKLLIYGASNVQSGVPSRFSGSESGTESTLTINNLQPEDSATYYCQQSYSTPRTFGQGTKVEIK | < 0.06 | 0.16 | 0.53 | 0.26 | 0.93 | > 10 | – | –
CR11036 (antibody, V domains shown) VH: EVQLVQSGAEVKKPGASVTVSCKASGYAFTSYYLHWVRQAPGQGLEWMGIMNLHGGSTTYAQKFQGRVTMTRDTSTRTVYMELSGLRSEDSAVYYCARESPDSSGYPGYYGMDVWGQGTTVTVSS VL: EIVLTQSPGTLSLSPGERATLSCRASQSVSSDFFAWYQQKRGQTPTLLIYGTSTRATGIPDRFSGSGSGTDFTLSVARLEPEDFAVYYCQQYGSSTWTFGQGTKVEIK | < 0.06 | 0.02 | 0.22 | > 10 | < 0.14 | > 10 | – | –
CR11038 (antibody, V domains shown) VH: EVQLVESGAEVKKPGASVKVSCKASGYAFTSYYLHWVRQAPGQGLEWMGIMNPHGGSTTYAQKFQGRVTMTRDTSTSTVYMELSSLRSEDTAVYYCARESPDSSGYPGYYGMDVWGQGTTVTVSS VL: SYELTQPPSASGTPGQRVTMSCSGSRSNIGSNPVSWFQQLPGMVPKLLIYTNDQRPSGVPDRFSGSKSGPSASLAISGLQSEDEADYYCAAWDDSLKGWVFGGGTKLTVL | < 0.06 | 0.05 | 2.1 | 0.31 | 0.55 | 1.25 | – | –
CR11039 (antibody, V domains shown) VH: EVQLVQSGAEVKKPGESVKISCKTSGYAFTGYGISWVRQAPGQGLEWMGWINTYKFNTNYAQNLQGRVTMTIDTSTSAAYMELRSLRYEDTAVYFCARDWAGPFGNAFDVWGQGTMVTVSS VL: IQMTQSPSSLSASIGDRVAITCQASQDISDYLNWYQQQPGKAPKLLLYGASNLETGVPSRFSGSGSGTDFTFTISSLQPEDIATYYCQQYGNLPPTFGGGTKLEIK | < 0.06 | 0.02 | 0.06 | 0.44 | < 0.14 | 0.63 | – | –
